Each block holds one binder with its values, some of them ahead of it.
What was measured:
[1] = biological target: T1, avidin-c-fms Ig-like 1 domain fusion protein (chicken; human, UniProt P07333 20-126); test: FACS, biotin beads coated with the avidin fusion protein, FITC-2.36 without competitor
T1 construct: Joined through an XhoI site; Captured on biotin beads; also called Ig1 construct; Ig-like loop 1 (IPVI-ALLP); not shown: chicken avidin, N-terminal fusion partner from pCEP4-Avidin(N)

[2] = biological target: T2, avidin-c-fms Ig-like 1-4 domain fusion protein (chicken; human, UniProt P07333 20-418); test: FACS, biotin beads loaded with the avidin fusion protein, FITC-labeled antibody; Neg CM value of this antibody 3.32
T2 construct: Captured on biotin beads; also called Ig-like loops 1-4 (IPVI-GTLL); not shown: chicken avidin, N-terminal fusion partner from pCEP4-Avidin(N)
T2 sequence (P07333 20-418 limits assumed): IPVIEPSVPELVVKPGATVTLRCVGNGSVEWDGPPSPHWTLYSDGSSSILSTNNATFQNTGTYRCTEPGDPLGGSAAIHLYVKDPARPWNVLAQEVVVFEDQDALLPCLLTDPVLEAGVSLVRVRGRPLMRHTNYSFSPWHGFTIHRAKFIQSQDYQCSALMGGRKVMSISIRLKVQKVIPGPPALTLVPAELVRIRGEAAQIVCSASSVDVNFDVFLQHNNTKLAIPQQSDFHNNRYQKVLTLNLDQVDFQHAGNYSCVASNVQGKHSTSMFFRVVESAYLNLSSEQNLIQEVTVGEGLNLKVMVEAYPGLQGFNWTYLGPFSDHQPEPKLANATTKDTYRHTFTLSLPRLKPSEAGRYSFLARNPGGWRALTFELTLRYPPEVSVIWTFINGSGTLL
Procedure: (§1) The concentration of each c-fms avidin fusion protein was determined using a quantitative FACS based assay. The c-fms avidin fusion proteins were captured on 6.7 μm biotin polystyrene beads (Spherotech, Inc., Libertyville Ill.). 1× conditioned media (20 and 200 μl) were added to 5 μl (˜3.5×10⁵) beads, and incubated for 1 hr at room temperature with rotation. Conditioned media was removed by centrifugation and samples were washed with PBS containing 0.5% BSA (BPBS). The avidin beads were stained with 200 μl of a 0.5 μg/ml solution of a goat FITC-labeled anti-avidin antibody (Vector Labs, Burlingame, Calif.) in BPBS for 45 minutes at room temperature covered by foil. Following incubation, the beads were recollected by centrifugation, washed with BPBS, and resuspended for analysis in 0.5 ml BPBS. The FITC fluorescence was detected using a FACScan (Becton Dickinson Bioscience, Franklin Lakes, N.J.). The signal was converted to protein mass using a standard curve derived with rAvidin. For epitope mapping, biotin beads were loaded with ˜100 ng of c-fms avidin fusion protein per 3.5×10⁵ beads and brought up to volume with growth medium.
(§2) After incubation for 1 hr at room temperature, 3 ml washing buffer (BPBS) was added and the antibody-beads complexes were collected by centrifugation for 5 min at 750×g. The pellet was washed in 3 ml of BPBS. The antibody bound to avidin-bead complexes was detected by FACS (Becton Dickinson) analysis. The mean (X) fluorescent intensity was recorded for each sample.

[3] = biological target: T3, avidin-c-fms Ig-like 1-5 domain fusion protein (full extracellular domain) (chicken; human, UniProt P07333 20-512); test: as above
T3 construct: Captured on biotin beads; also called c-fms ECD Ig1-5 construct; human c-fms ECD; not shown: chicken avidin, N-terminal fusion partner from pCEP4-Avidin(N)
T3 sequence (P07333 20-512 limits assumed): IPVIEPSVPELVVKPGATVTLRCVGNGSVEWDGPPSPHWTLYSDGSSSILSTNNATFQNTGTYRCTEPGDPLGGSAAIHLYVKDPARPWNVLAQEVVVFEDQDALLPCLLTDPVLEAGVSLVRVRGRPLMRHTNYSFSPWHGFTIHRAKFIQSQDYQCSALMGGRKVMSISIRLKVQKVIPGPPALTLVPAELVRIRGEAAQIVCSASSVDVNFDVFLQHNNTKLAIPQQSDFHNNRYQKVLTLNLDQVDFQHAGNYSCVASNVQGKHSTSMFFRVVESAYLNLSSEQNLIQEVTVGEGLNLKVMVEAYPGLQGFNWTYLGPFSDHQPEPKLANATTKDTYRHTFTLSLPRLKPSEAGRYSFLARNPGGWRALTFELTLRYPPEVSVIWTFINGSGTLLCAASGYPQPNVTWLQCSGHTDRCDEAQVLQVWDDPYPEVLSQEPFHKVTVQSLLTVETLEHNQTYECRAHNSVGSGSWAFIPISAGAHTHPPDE
Procedure: as §1, §2

[4] = biological target: T1, avidin-c-fms Ig-like 1 domain fusion …; test: as above
Procedure: as §1, §2

[5] = biological target: T4, avidin-c-fms Ig-like 1-2 domain fusion protein (chicken; human, UniProt P07333 20-223); test: as above
T4 construct: Captured on biotin beads; also called Ig1-2 construct; Ig-like loops 1 and 2 (IPVI-AQIV); not shown: chicken avidin, N-terminal fusion partner from pCEP4-Avidin(N)
T4 sequence (P07333 20-223 limits assumed): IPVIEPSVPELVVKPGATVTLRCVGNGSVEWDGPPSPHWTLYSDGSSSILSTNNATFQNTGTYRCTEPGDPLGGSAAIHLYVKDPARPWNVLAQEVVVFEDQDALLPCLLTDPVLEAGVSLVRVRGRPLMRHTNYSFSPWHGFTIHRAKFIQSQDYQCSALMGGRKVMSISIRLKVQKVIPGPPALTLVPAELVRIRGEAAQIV
Procedure: as §1, §2

[6] = biological target: T1, avidin-c-fms Ig-like 1 domain fusion …; test: FACS, biotin beads coated with the avidin fusion protein, FITC-1.109 without competitor
[7] = biological target: T2, avidin-c-fms Ig-like 1-4 domain fusion …; test: FACS, biotin beads loaded with the avidin fusion protein, FITC-labeled antibody; Neg CM value of this antibody 4.22
Procedure: as §1, §2

[8] = biological target: T3, avidin-c-fms Ig-like 1-5 domain fusion …; test: as above
Procedure: as §1, §2

[9] = biological target: T1, avidin-c-fms Ig-like 1 domain fusion …; test: as above
Procedure: as §1, §2

[10] = biological target: T4, avidin-c-fms Ig-like 1-2 domain fusion …; test: as above
Procedure: as §1, §2

[11] = biological target: T2, avidin-c-fms Ig-like 1-4 domain fusion …; test: FACS, biotin beads loaded with the avidin fusion protein, FITC-labeled antibody; Neg CM value of this antibody 4.74
Procedure: as §1, §2

[12] = biological target: T3, avidin-c-fms Ig-like 1-5 domain fusion …; test: as above
Procedure: as §1, §2

[13] = biological target: T1, avidin-c-fms Ig-like 1 domain fusion …; test: as above
Procedure: as §1, §2

[14] = biological target: T4, avidin-c-fms Ig-like 1-2 domain fusion …; test: as above
Procedure: as §1, §2

[15] = biological target: T1, avidin-c-fms Ig-like 1 domain fusion …; test: FACS, biotin beads coated with the avidin fusion protein, FITC-1.2 without competitor

T1 sequence (P07333 20-126 limits assumed): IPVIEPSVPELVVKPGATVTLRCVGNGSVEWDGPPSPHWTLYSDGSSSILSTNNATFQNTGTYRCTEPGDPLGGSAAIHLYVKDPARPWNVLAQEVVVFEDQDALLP

binding result [1]: no binding (tested: 1 µg/ml)
MFI [2]: 10.4
MFI [3]: 15.4
MFI [4]: 2.85
MFI [5]: 12
B1: anti-c-fms IgG2 clone 2.360 (parent form, PT) (antibody, V domains shown)
VH: QVQLVQSGAEVKKPGASVKVSCKVSGYTLTELSMHWVRQAPGKGLEWMGGFDPEDGETIYAQKFQGRVTMTEDTSTDTVYMELSSLRSEDTAVYYCATGVMITFGGVIVGHSYYGMDVWGQGTTVTVSS
VL: DIQMTQSPSSLSASVGDRVTITCRASQGINNYLAWYQQKPGKVPQLLIYVASTLQSGVPSRFSGSGSGTDFTLTISSLQPEDVATYYCQKYNSGPFTFGPGTKVDIKR
modifications: N-terminal glutamine cyclized to pyroglutamic acid; C-terminal lysine absent
notes: Recombinant human IgG2 kappa from COS/PKB cells

binding result [6]: no binding (tested: 1 µg/ml)
MFI [7]: 215
MFI [8]: 668
MFI [9]: 2.93
MFI [10]: 232
B2: anti-c-fms IgG2 clone 1.109 (parent form, PT) (antibody, V domains shown)
VH: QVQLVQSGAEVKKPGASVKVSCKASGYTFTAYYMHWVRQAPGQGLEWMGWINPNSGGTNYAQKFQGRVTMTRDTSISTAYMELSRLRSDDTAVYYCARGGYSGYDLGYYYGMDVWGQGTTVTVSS
VL: DIQMTQSPSSLSASVGDRVTITCQASQNISNFLDWYQQKPGKAPNLLIYDASDLDPGVPSRFSGSGSGTDFTFTISSLQPEDIATYYCQQYVSLPLTFGGGTKVEIKR
modifications: N-linked glycosylation site at Asn-28 in CDR1, reported as likely occupied; N-terminal glutamine cyclized to pyroglutamic acid; C-terminal lysine absent
notes: Recombinant human IgG2 kappa from COS/PKB cells (hybridoma was IgG1)

MFI [11]: 134
MFI [12]: 342
MFI [13]: 2.89
MFI [14]: 148
binding result [15]: no binding (tested: 1 µg/ml)
B3: anti-c-fms IgG2 clone 1.2 (parent form, PT) (antibody, V domains shown)
VH: QVQLVQSGAEVKKPGASVKVSCKASGYTFTSYGISWVRQAPGQGLEWMGWISAYNGNTNYAQKLQGRVTMTTDTSTSTAYMELRSLRSDDTAVYYCARESWFGEVFFDYWGQGTLVTVSS
VL: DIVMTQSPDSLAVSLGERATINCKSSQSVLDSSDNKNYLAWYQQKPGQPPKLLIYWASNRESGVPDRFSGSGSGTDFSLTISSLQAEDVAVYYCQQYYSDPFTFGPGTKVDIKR
modifications: N-terminal glutamine cyclized to pyroglutamic acid; C-terminal lysine absent
notes: Recombinant human IgG2 kappa from COS/PKB cells (hybridoma was IgG1); also called 1.2.1; Clone 1.2 PT

From patent US20090155164A1 (Amgen, published 2009)
